Results from patent US9539225B2, “Anemia of cancer improving/prophylactic agent” (SBI Pharmaceuticals Co., Ltd., priority 2011, dated 2017).

Test system: person suffering from chronic lymphatic leukemia (cancerous anemia)
Excerpt: The white blood cell count, the red blood cell count, the hemoglobin, and the blood platelet count before and after treatment are shown in Table 3 below.

## Rituxan: anticancer drug used to treat chronic lymphatic leukemia
2010 Nov. 22, after one cycle of Rituxan begun Nov. 15, 2010, before ALA, 2010 Jan. 13 value 16.48
  White blood cell count: 1560 µL⁻¹
human, in vivo
  Anemia as side effect, result in words: anemia progressed as a side effect
  Blood platelet count: 101000 µL⁻¹
  Hemoglobin: 9.20 g/dL
  Red blood cell count: 2.8e+06 µL⁻¹
